Reference: the Immune Epitope Database (IEDB)
Each block holds one sequence with its values, some of them ahead of it.

Columns and labels:
[1] = biological target: HLA-A*30:01; assay: IEDB peptide-MHC binding, purified MHC/competitive/fluorescence; filed as Kd, often an IC50 or EC50 that approximates it; ≥ and ≤ were set here for values at or beyond the usual limits of such assays; settings: source organism: Human immunodeficiency virus 1
[2] = biological target: HLA-C*05:01; assay: IEDB peptide-MHC binding, purified MHC/direct/fluorescence; filed as Kd, often an IC50 or EC50 that approximates it; ≥ and ≤ were set here for values at or beyond the usual limits of such assays; settings: source organism: Brucella abortus S19
[3] = biological target: HLA-A*02:01; assay: as above
[4] = biological target: HLA-A*69:01; assay: as above
[5] = biological target: HLA-A*02:12; assay: as above
[6] = biological target: HLA-A*02:50; assay: IEDB peptide-MHC binding, purified MHC/competitive/fluorescence; filed as Kd, often an IC50 or EC50 that approximates it; ≥ and ≤ were set here for values at or beyond the usual limits of such assays
[7] = biological target: HLA-A*80:01; assay: IEDB peptide-MHC binding, purified MHC/direct/fluorescence; filed as Kd, often an IC50 or EC50 that approximates it; ≥ and ≤ were set here for values at or beyond the usual limits of such assays; settings: source organism: Human immunodeficiency virus 1
[8] = biological target: HLA-A*01:01; assay: IEDB peptide-MHC binding, purified MHC/competitive/fluorescence; filed as Kd, often an IC50 or EC50 that approximates it; ≥ and ≤ were set here for values at or beyond the usual limits of such assays; settings: source organism: Human immunodeficiency virus type 1 BH10
[9] = biological target: HLA-A*29:02; assay: as above; settings: source organism: Human immunodeficiency virus type 1 BH10
[10] = biological target: HLA-A*23:01; assay: IEDB peptide-MHC binding, purified MHC/direct/fluorescence; filed as Kd, often an IC50 or EC50 that approximates it; ≥ and ≤ were set here for values at or beyond the usual limits of such assays
[11] = biological target: HLA-A*68:02; assay: as above; settings: source organism: Zaire ebolavirus
[12] = biological target: HLA-A*02:16; assay: as above; settings: source organism: Zaire ebolavirus
[13] = biological target: HLA-A*24:03; assay: as above
[14] = biological target: HLA-A*01:01; assay: as above
[15] = biological target: HLA-A*29:02; assay: as above; settings: source organism: Zaire ebolavirus
[16] = biological target: HLA-A*03:01; assay: as above
[17] = biological target: HLA-A*02:19; assay: as above; settings: source organism: Zaire ebolavirus
[18] = biological target: HLA-A*02:11; assay: as above; settings: source organism: Zaire ebolavirus
[19] = biological target: HLA-A*02:03; assay: as above; settings: source organism: Zaire ebolavirus
[20] = biological target: HLA-A*26:01; assay: IEDB peptide-MHC binding, purified MHC/competitive/fluorescence; filed as Kd, often an IC50 or EC50 that approximates it; ≥ and ≤ were set here for values at or beyond the usual limits of such assays; settings: source organism: Zaire ebolavirus
[21] = biological target: HLA-B*46:01; assay: as above; settings: source organism: Zaire ebolavirus
[22] = biological target: HLA-A*02:01; assay: as above; settings: source organism: Zaire ebolavirus
[23] = biological target: HLA-B*15:01; assay: as above; settings: source organism: Zaire ebolavirus
[24] = biological target: HLA-A*69:01; assay: as above; settings: source organism: Zaire ebolavirus
[25] = biological target: HLA-B*18:01; assay: as above; settings: source organism: Zaire ebolavirus
[26] = biological target: HLA-B*39:01; assay: as above; settings: source organism: Zaire ebolavirus
[27] = biological target: HLA-B*27:03; assay: as above; settings: source organism: Zaire ebolavirus
[28] = biological target: HLA-B*57:01; assay: as above; settings: source organism: Zaire ebolavirus
[29] = biological target: HLA-B*51:01; assay: as above; settings: source organism: Zaire ebolavirus
[30] = biological target: HLA-C*14:02; assay: IEDB peptide-MHC binding, purified MHC/direct/fluorescence; filed as Kd, often an IC50 or EC50 that approximates it; ≥ and ≤ were set here for values at or beyond the usual limits of such assays; settings: source organism: Vibrio vulnificus YJ016
[31] = biological target: HLA-C*04:01; assay: as above
[32] = biological target: HLA-A*31:01; assay: as above
[33] = biological target: HLA-A*26:01; assay: as above
[34] = biological target: HLA-A*11:01; assay: as above
[35] = biological target: HLA-B*58:01; assay: as above
[36] = biological target: HLA-B*08:01; assay: as above; settings: source organism: Vibrio cholerae
[37] = biological target: HLA-B*15:01; assay: as above
[38] = biological target: HLA-B*44:02; assay: as above; settings: source organism: Vibrio cholerae
[39] = biological target: HLA-B*27:05; assay: as above
[40] = biological target: HLA-B*40:01; assay: as above
[41] = biological target: HLA-B*07:02; assay: as above; settings: source organism: Vibrio cholerae
[42] = biological target: HLA-C*08:02; assay: as above
[43] = biological target: HLA-C*12:03; assay: as above; settings: source organism: Mycobacterium tuberculosis variant bovis BCG str. Pasteur 1173P2
[44] = biological target: HLA-C*03:03; assay: as above
[45] = biological target: HLA-A*30:01; assay: as above; settings: source organism: Kurkino virus
[46] = biological target: HLA-B*08:01; assay: IEDB peptide-MHC binding, purified MHC/competitive/fluorescence; filed as Kd, often an IC50 or EC50 that approximates it; ≥ and ≤ were set here for values at or beyond the usual limits of such assays; settings: source organism: Influenza A virus (A/Harbin/1/1988(H1N2))
[47] = source organism: Brucella abortus 2308
[48] = source organism: Zaire ebolavirus
[49] = source organism: Vibrio cholerae
[50] = source organism: Mycobacterium tuberculosis variant bovis BCG str. Pasteur 1173P2
[51] = source organism: Bacillus anthracis str. A0193
[52] = source organism: Orthohantavirus dobravaense
[53] = source organism: Haemophilus influenzae

Sequence: EELRSLYNTV
Kd [1]: ≥ 20 µM

Sequence: YVDIIGLSV
Kd [2]: 0.002 µM
Kd [3, 47]: 0.056 µM
Kd [4, 47]: 0.0085 µM
Kd ([5]; source organism: Brucella suis 1330): 0.005 µM
Kd ([6]; source organism: Brucella abortus S19): 0.0091 µM

Sequence: FNCGGEFFY
Kd [7]: 0.0526 µM
Kd [8]: 0.0565 µM
Kd [9]: ≤ 0.0001 µM

Sequence: LTDRELLLL
Kd [10, 48]: ≥ 20 µM
Kd [11]: ≥ 20 µM
Kd [12]: ≥ 20 µM
Kd [13, 48]: ≥ 20 µM
Kd ([14]; source organism: Sudan ebolavirus - Uganda (2000)): 0.255 µM
Kd [15]: ≥ 20 µM
Kd [16, 48]: ≥ 20 µM
Kd [17]: ≥ 20 µM
Kd [18]: ≥ 20 µM
Kd [5, 48]: ≥ 20 µM
Kd [19]: ≥ 20 µM
Kd [20]: ≥ 20 µM
Kd [21]: ≥ 20 µM
Kd [22]: ≥ 20 µM
Kd [23]: ≥ 20 µM
Kd [24]: ≥ 20 µM
Kd [25]: ≥ 20 µM
Kd [26]: ≥ 20 µM
Kd [27]: ≥ 20 µM
Kd [28]: ≥ 20 µM
Kd [29]: ≥ 20 µM

Sequence: AYFLEAQEM
Kd ([13]; source organism: Vibrio vulnificus): 0.0036 µM
Kd [30]: ≤ 0.001 µM
Kd ([31]; source organism: Vibrio vulnificus YJ016): ≥ 20 µM

Sequence: ALYWALMES
Kd [32, 49]: ≥ 20 µM
Kd [33, 49]: ≥ 20 µM
Kd [34, 49]: ≥ 20 µM
Kd [35, 49]: ≥ 20 µM
Kd [13, 49]: ≥ 20 µM
Kd [3, 49]: 0.021 µM
Kd [36]: ≥ 20 µM
Kd [37, 49]: ≥ 20 µM
Kd [38]: ≥ 20 µM
Kd [39, 49]: ≥ 20 µM
Kd [14, 49]: ≥ 20 µM
Kd [16, 49]: ≥ 20 µM
Kd [4, 49]: ≥ 20 µM
Kd [40, 49]: ≥ 20 µM
Kd [41]: ≥ 20 µM
Kd ([6]; source organism: Vibrio cholerae 2740-80): 0.0002 µM

Sequence: FLADYGWRL
Kd [42, 50]: 0.057 µM
Kd ([4]; source organism: Mycobacterium tuberculosis): 0.663 µM
Kd [43]: 0.413 µM
Kd [44, 50]: 0.026 µM

Sequence: YAIYTLGEM
Kd [31, 51]: ≥ 20 µM
Kd [44, 51]: ≤ 0.001 µM

Sequence: YYTEDQGQF
Kd [10, 52]: 0.0135 µM
Kd [45]: ≥ 20 µM
Kd [13, 52]: 0.0014 µM
Kd ([31]; source organism: Kurkino virus): ≥ 20 µM

Kd [32, 53]: ≥ 20 µM
Kd [33, 53]: ≥ 20 µM
Kd [34, 53]: ≥ 20 µM
Kd [35, 53]: ≥ 20 µM
Kd [3, 53]: 1.36 µM
Kd [37, 53]: ≥ 20 µM
Kd [39, 53]: ≥ 20 µM
Kd [14, 53]: ≥ 20 µM
Kd [16, 53]: ≥ 20 µM
Kd [4, 53]: ≥ 20 µM
Kd [40, 53]: ≥ 20 µM
Kd ([6]; source organism: Haemophilus influenzae R2846): 0.0019 µM
Sequence: FLADYRGKT

Sequence: IAPWYAFAL
Kd ([42]; source organism: Influenza A virus (A/Harbin/1/1988(H1N2))): 3.34 µM
Kd [46]: 7.56 µM
